Assay results from publication doi:10.1101/2022.07.14.499993 (bioRxiv, 2022).

How the values were obtained:
[1] = target: T1, IL-11 receptor α, fusion protein with the Fc domain of human IgG1 (UniProt Q14626 24-370); test: SPR
T1 sequence (looked up): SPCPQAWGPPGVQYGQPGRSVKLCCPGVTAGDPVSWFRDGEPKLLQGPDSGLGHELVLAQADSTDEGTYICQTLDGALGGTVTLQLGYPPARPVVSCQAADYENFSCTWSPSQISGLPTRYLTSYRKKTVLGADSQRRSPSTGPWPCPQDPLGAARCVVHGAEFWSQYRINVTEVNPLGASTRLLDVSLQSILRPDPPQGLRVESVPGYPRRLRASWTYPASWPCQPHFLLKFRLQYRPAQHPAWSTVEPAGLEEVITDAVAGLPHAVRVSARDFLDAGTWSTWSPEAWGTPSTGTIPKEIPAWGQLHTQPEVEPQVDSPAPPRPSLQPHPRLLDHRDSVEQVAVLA

[2] = target: T2, IL-11/IL-11Rα fusion (interleukin and receptor connected with a (GGGGS)3 linker) (UniProt Q14626 113-318; P20809 23-199); test: ITC
T2 chain: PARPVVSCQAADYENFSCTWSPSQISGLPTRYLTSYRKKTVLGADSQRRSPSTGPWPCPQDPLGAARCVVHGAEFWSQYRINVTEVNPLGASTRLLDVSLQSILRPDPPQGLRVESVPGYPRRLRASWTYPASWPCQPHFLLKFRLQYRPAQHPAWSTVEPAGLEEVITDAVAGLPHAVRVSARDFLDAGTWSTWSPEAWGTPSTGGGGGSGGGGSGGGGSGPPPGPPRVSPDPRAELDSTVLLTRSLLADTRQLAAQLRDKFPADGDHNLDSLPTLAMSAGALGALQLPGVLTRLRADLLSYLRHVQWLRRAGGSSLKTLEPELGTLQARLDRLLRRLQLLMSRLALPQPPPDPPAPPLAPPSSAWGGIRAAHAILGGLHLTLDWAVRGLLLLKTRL

[3] = target: IL-6/IL-6Rα fusion (interleukin and receptor connected with a (GGGGS)3 linker) (UniProt P08887 114-320; P05231 30-212); test: ITC
[4] = target: T3, IL-11 receptor α (amino acids 113-318), the receptor part of the IL-11/IL-11Rα fusion (UniProt Q14626 113-318); test: HDX-MS
T3 sequence (looked up): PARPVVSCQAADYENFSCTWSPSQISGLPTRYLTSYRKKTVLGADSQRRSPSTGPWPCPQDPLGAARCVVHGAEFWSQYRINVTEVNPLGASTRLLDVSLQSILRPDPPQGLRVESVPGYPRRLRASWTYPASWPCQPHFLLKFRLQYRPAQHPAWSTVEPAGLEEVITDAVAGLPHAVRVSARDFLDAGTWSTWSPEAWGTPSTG

B1: Interleukin-11 (ligand, UniProt P20809 22-199, looked up)
chain: PGPPPGPPRVSPDPRAELDSTVLLTRSLLADTRQLAAQLRDKFPADGDHNLDSLPTLAMSAGALGALQLPGVLTRLRADLLSYLRHVQWLRRAGGSSLKTLEPELGTLQARLDRLLRRLQLLMSRLALPQPPPDPPAPPLAPPSSAWGGIRAAHAILGGLHLTLDWAVRGLLLLKTRL
dH [1]: 11.2 ± 0.717 kcal/mol

B2: human glycoprotein 130 (amino acids 24-618) (receptor, UniProt P40189 24-618, looked up)
chain: LLDPCGYISPESPVVQLHSNFTAVCVLKEKCMDYFHVNANYIVWKTNHFTIPKEQYTIINRTASSVTFTDIASLNIQLTCNILTFGQLEQNVYGITIISGLPPEKPKNLSCIVNEGKKMRCEWDGGRETHLETNFTLKSEWATHKFADCKAKRDTPTSCTVDYSTVYFVNIEVWVEAENALGKVTSDHINFDPVYKVKPNPPHNLSVINSEELSSILKLTWTNPSIKSVIILKYNIQYRTKDASTWSQIPPEDTASTRSSFTVQDLKPFTEYVFRIRCMKEDGKGYWSDWSEEASGITYEDRPSKAPSFWYKIDPSHTQGYRTVQLVWKTLPPFEANGKILDYEVTLTRWKSHLQNYTVNATKLTVNLTNDRYLATLTVRNLVGKSDAAVLTIPACDFQATHPVMDLKAFPKDNMLWVEWTTPRESVKKYILEWCVLSDKAPCITDWQQEDGTVHRTYLRGNLAESKCYLITVTPVYADGPGSPESIKAYLKQAPPSKGPTVRTKKVGKNEAVLEWDQLPVDVQNGFIRNYTIFYRTIIGNETAVNVDSSHTEYTLSSLTSDTLYMVRMAAYTDEGGKDGPEFTFTTPKFAQGEI
dH [2]: -12.2 ± 0.239 kcal/mol
dH [3]: -6.69 ± 0.239 kcal/mol

B3: Interleukin-11 (amino acids 23-199), the interleukin part of the IL-11/IL-11Rα fusion (domain or fragment, UniProt P20809 23-199, looked up)
chain: GPPPGPPRVSPDPRAELDSTVLLTRSLLADTRQLAAQLRDKFPADGDHNLDSLPTLAMSAGALGALQLPGVLTRLRADLLSYLRHVQWLRRAGGSSLKTLEPELGTLQARLDRLLRRLQLLMSRLALPQPPPDPPAPPLAPPSSAWGGIRAAHAILGGLHLTLDWAVRGLLLLKTRL
binding result [4]: binds
